*1 amine or outer side, *2 acyl side, *3 side chain or, on linkers, in order; H or OH if unused. Where no end group is shown, it is not given here. Side-chain parts run from the residue outwards. [ ]: non-standard residue; d: D form. The star is where a group is joined. C20 diacid = O=C(O)CCCCCCCCCCCCCCCCCCC(=O)*; γGlu = O=C(O)[C@H](CCC(=O)[*:2])N[*:1]; αMeL = CC(C)C[C@](C)(N)C(=O)O; αMeK = C[C@](N)(CCCCN)C(=O)O; AEEA = NCCOCCOCC(=O)O; Aib = CC(C)(N)C(=O)O
Columns and labels:
[1] = molecular target: human glucagon receptor (human), P47871; experiment: radioligand competition SPA, HEK293 membranes
human glucagon receptor (human), P47871, sequence (P47871 26-477): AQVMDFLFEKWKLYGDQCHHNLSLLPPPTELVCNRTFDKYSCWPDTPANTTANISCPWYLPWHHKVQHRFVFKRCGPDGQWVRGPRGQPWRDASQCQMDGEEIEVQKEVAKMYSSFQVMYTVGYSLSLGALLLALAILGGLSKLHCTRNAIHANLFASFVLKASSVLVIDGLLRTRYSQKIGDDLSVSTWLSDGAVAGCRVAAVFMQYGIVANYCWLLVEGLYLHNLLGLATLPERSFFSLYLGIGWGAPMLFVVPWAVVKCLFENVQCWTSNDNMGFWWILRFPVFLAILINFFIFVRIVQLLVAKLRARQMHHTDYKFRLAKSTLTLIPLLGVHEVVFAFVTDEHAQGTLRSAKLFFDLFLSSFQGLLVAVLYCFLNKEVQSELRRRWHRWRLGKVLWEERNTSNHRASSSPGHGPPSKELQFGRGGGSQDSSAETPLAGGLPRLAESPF

[2] = molecular target: T1, human GLP-1 receptor (human), P43220; experiment: radioligand competition SPA, HEK293 membranes
T1 chain: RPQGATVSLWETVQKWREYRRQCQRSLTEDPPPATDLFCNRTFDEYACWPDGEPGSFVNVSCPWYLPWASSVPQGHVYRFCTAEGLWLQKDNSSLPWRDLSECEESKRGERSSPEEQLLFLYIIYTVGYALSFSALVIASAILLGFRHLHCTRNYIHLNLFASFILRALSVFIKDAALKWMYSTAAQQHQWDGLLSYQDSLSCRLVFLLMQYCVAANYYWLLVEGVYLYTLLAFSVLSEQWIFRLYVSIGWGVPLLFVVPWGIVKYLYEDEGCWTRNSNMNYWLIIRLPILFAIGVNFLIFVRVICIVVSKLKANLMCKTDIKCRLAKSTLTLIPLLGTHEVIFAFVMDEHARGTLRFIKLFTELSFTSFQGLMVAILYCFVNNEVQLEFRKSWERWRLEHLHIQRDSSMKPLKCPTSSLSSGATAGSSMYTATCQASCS

[3] = molecular target: T2, human GIP receptor (human), P48546; experiment: radioligand competition SPA, HEK293 membranes
T2 chain: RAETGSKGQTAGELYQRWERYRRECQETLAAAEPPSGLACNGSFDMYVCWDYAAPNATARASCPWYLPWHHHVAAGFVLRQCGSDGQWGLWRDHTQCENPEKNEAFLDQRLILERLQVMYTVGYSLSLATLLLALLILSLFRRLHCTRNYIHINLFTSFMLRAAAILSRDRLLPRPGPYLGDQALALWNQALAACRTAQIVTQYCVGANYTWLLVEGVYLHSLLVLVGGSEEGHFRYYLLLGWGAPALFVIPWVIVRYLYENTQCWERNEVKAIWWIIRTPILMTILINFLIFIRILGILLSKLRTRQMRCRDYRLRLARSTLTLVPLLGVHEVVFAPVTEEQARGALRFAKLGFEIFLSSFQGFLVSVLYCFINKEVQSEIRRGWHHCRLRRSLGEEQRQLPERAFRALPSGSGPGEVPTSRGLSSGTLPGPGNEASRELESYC

[4] = molecular target: human glucagon receptor (human), P47871; experiment: cell-based or functional assay
[5] = molecular target: T1, human GLP-1 receptor (human), P43220; experiment: cell-based or functional assay
[6] = molecular target: T2, human GIP receptor (human), P48546; experiment: cell-based or functional assay

Y[Aib]QGTFTSDYSI[αMeL]LDKK([AEEA-AEEA-γGlu-C20 diacid])AQ[αMeK]AFIEYLLEGGPSSGAPPPS-NH2 [Example 3]
Ki [1]: 12 nM | Ki [2]: 6.06 nM | Ki [3]: 0.0446 nM | cAMP EC50 (0.1% casein) [4]: 0.152 nM | cAMP EC50 (FBS and BSA present) [4]: 8.03 nM | cAMP EC50 (0.1% casein) [5]: 0.107 nM | cAMP EC50 (0.1% casein) [6]: 0.0376 nM | cAMP EC50 (FBS and BSA present) [6]: 1.91 nM

B1: Example 15 (peptide)
peptide: Y[Aib]QGTFTSDYSILLDKK([AEEA-AEEA-γGlu-C20 diacid])AQ[Aib]AFIEYLLA[Aib]GPSSGAPPPS-NH2
modifications: N-terminus assumed
SMILES: CC[C@H](C)[C@H](NC(=O)[C@H](Cc1ccccc1)NC(=O)[C@H](C)NC(=O)C(C)(C)NC(=O)[C@H](CCC(N)=O)NC(=O)[C@H](C)NC(=O)[C@H](CCCCNC(=O)COCCOCCNC(=O)COCCOCCNC(=O)CC[C@H](NC(=O)CCCCCCCCCCCCCCCCCCC(=O)O)C(=O)O)NC(=O)[C@H](CCCCN)NC(=O)[C@H](CC(=O)O)NC(=O)[C@H](CC(C)C)NC(=O)[C@H](CC(C)C)NC(=O)[C@@H](NC(=O)[C@H](CO)NC(=O)[C@H](Cc1ccc(O)cc1)NC(=O)[C@H](CC(=O)O)NC(=O)[C@H](CO)NC(=O)[C@@H](NC(=O)[C@H](Cc1ccccc1)NC(=O)[C@@H](NC(=O)CNC(=O)[C@H](CCC(N)=O)NC(=O)C(C)(C)NC(=O)[C@@H](N)Cc1ccc(O)cc1)[C@@H](C)O)[C@@H](C)O)[C@@H](C)CC)C(=O)N[C@@H](CCC(=O)O)C(=O)N[C@@H](Cc1ccc(O)cc1)C(=O)N[C@@H](CC(C)C)C(=O)N[C@@H](CC(C)C)C(=O)N[C@@H](C)C(=O)NC(C)(C)C(=O)NCC(=O)N1CCC[C@H]1C(=O)N[C@@H](CO)C(=O)N[C@@H](CO)C(=O)NCC(=O)N[C@@H](C)C(=O)N1CCC[C@H]1C(=O)N1CCC[C@H]1C(=O)N1CCC[C@H]1C(=O)N[C@@H](CO)C(N)=O
Ki [1]: 4.56 nM | Ki [2]: 5.8 nM | Ki [3]: 0.0972 nM | cAMP EC50 (0.1% casein) [4]: 0.131 nM | cAMP EC50 (FBS and BSA present) [4]: 5.92 nM | cAMP EC50 (0.1% casein) [5]: 0.253 nM | cAMP EC50 (FBS and BSA present) [5]: 10.7 nM | cAMP EC50 (0.1% casein) [6]: 0.0689 nM | cAMP EC50 (FBS and BSA present) [6]: 1.47 nM

Y[Aib]QGTFTSDYSILLDKK([AEEA-AEEA-γGlu-C20 diacid])AQ[Aib]AFIEYLLEGGPSSGAPPPS-NH2 [Example 16]
Ki [1]: 11.5 nM | Ki [2]: 16.1 nM | Ki [3]: 0.106 nM | cAMP EC50 (0.1% casein) [4]: 0.174 nM | cAMP EC50 (FBS and BSA present) [4]: 13.2 nM | cAMP EC50 (0.1% casein) [5]: 0.157 nM | cAMP EC50 (FBS and BSA present) [5]: 19 nM | cAMP EC50 (0.1% casein) [6]: 0.114 nM | cAMP EC50 (FBS and BSA present) [6]: 4.37 nM

B2: Example 17 (peptide)
peptide: Y[Aib]QGTFTSDYSILLDKK([AEEA-AEEA-γGlu-C20 diacid])AQ[Aib]AFIEYLLE[Aib]GPSSGAPPPS-NH2
modifications: N-terminus assumed
SMILES: CC[C@H](C)[C@H](NC(=O)[C@H](Cc1ccccc1)NC(=O)[C@H](C)NC(=O)C(C)(C)NC(=O)[C@H](CCC(N)=O)NC(=O)[C@H](C)NC(=O)[C@H](CCCCNC(=O)COCCOCCNC(=O)COCCOCCNC(=O)CC[C@H](NC(=O)CCCCCCCCCCCCCCCCCCC(=O)O)C(=O)O)NC(=O)[C@H](CCCCN)NC(=O)[C@H](CC(=O)O)NC(=O)[C@H](CC(C)C)NC(=O)[C@H](CC(C)C)NC(=O)[C@@H](NC(=O)[C@H](CO)NC(=O)[C@H](Cc1ccc(O)cc1)NC(=O)[C@H](CC(=O)O)NC(=O)[C@H](CO)NC(=O)[C@@H](NC(=O)[C@H](Cc1ccccc1)NC(=O)[C@@H](NC(=O)CNC(=O)[C@H](CCC(N)=O)NC(=O)C(C)(C)NC(=O)[C@@H](N)Cc1ccc(O)cc1)[C@@H](C)O)[C@@H](C)O)[C@@H](C)CC)C(=O)N[C@@H](CCC(=O)O)C(=O)N[C@@H](Cc1ccc(O)cc1)C(=O)N[C@@H](CC(C)C)C(=O)N[C@@H](CC(C)C)C(=O)N[C@@H](CCC(=O)O)C(=O)NC(C)(C)C(=O)NCC(=O)N1CCC[C@H]1C(=O)N[C@@H](CO)C(=O)N[C@@H](CO)C(=O)NCC(=O)N[C@@H](C)C(=O)N1CCC[C@H]1C(=O)N1CCC[C@H]1C(=O)N1CCC[C@H]1C(=O)N[C@@H](CO)C(N)=O
Ki [1]: 5.81 nM | Ki [2]: 10.2 nM | Ki [3]: 0.0895 nM | cAMP EC50 (0.1% casein) [4]: 0.135 nM | cAMP EC50 (FBS and BSA present) [4]: 8.05 nM | cAMP EC50 (0.1% casein) [5]: 0.153 nM | cAMP EC50 (FBS and BSA present) [5]: 18.4 nM | cAMP EC50 (0.1% casein) [6]: 0.0439 nM | cAMP EC50 (FBS and BSA present) [6]: 2.38 nM

Y[Aib]QGTFTSDYSILLDKK([AEEA-γGlu-C20 diacid])AQ[Aib]AFIEYLLEGGPSSGAPPPS-NH2 [Example 18]
Ki [1]: 5.71 nM | Ki [2]: 8.06 nM | Ki [3]: 0.0835 nM | cAMP EC50 (0.1% casein) [4]: 0.0861 nM | cAMP EC50 (FBS and BSA present) [4]: 5.71 nM | cAMP EC50 (0.1% casein) [5]: 0.141 nM | cAMP EC50 (FBS and BSA present) [5]: 16.1 nM | cAMP EC50 (0.1% casein) [6]: 0.123 nM | cAMP EC50 (FBS and BSA present) [6]: 5.89 nM

B3: Example 19 (peptide)
peptide: Y[Aib]QGTFTSDYSILLDKK([AEEA-γGlu-γGlu-C20 diacid])AQ[Aib]AFIEYLLE[Aib]GPSSGAPPPS-NH2
modifications: N-terminus assumed
SMILES: CC[C@H](C)[C@H](NC(=O)[C@H](Cc1ccccc1)NC(=O)[C@H](C)NC(=O)C(C)(C)NC(=O)[C@H](CCC(N)=O)NC(=O)[C@H](C)NC(=O)[C@H](CCCCNC(=O)COCCOCCNC(=O)CC[C@H](NC(=O)CC[C@H](NC(=O)CCCCCCCCCCCCCCCCCCC(=O)O)C(=O)O)C(=O)O)NC(=O)[C@H](CCCCN)NC(=O)[C@H](CC(=O)O)NC(=O)[C@H](CC(C)C)NC(=O)[C@H](CC(C)C)NC(=O)[C@@H](NC(=O)[C@H](CO)NC(=O)[C@H](Cc1ccc(O)cc1)NC(=O)[C@H](CC(=O)O)NC(=O)[C@H](CO)NC(=O)[C@@H](NC(=O)[C@H](Cc1ccccc1)NC(=O)[C@@H](NC(=O)CNC(=O)[C@H](CCC(N)=O)NC(=O)C(C)(C)NC(=O)[C@@H](N)Cc1ccc(O)cc1)[C@@H](C)O)[C@@H](C)O)[C@@H](C)CC)C(=O)N[C@@H](CCC(=O)O)C(=O)N[C@@H](Cc1ccc(O)cc1)C(=O)N[C@@H](CC(C)C)C(=O)N[C@@H](CC(C)C)C(=O)N[C@@H](CCC(=O)O)C(=O)NC(C)(C)C(=O)NCC(=O)N1CCC[C@H]1C(=O)N[C@@H](CO)C(=O)N[C@@H](CO)C(=O)NCC(=O)N[C@@H](C)C(=O)N1CCC[C@H]1C(=O)N1CCC[C@H]1C(=O)N1CCC[C@H]1C(=O)N[C@@H](CO)C(N)=O
Ki [1]: 5.2 nM | Ki [2]: 12 nM | Ki [3]: 0.0789 nM | cAMP EC50 (0.1% casein) [4]: 0.0874 nM | cAMP EC50 (FBS and BSA present) [4]: 8.45 nM | cAMP EC50 (0.1% casein) [5]: 0.143 nM | cAMP EC50 (FBS and BSA present) [5]: 24.4 nM | cAMP EC50 (0.1% casein) [6]: 0.0455 nM | cAMP EC50 (FBS and BSA present) [6]: 3.13 nM

B4: Example 20 (peptide)
peptide: Y[Aib]QGTFTSDYSILLDKK([AEEA-γGlu-C20 diacid])AQ[Aib]AFIEYLLE[Aib]GPSSGAPPPS-NH2
modifications: N-terminus assumed
SMILES: CC[C@H](C)[C@H](NC(=O)[C@H](Cc1ccccc1)NC(=O)[C@H](C)NC(=O)C(C)(C)NC(=O)[C@H](CCC(N)=O)NC(=O)[C@H](C)NC(=O)[C@H](CCCCNC(=O)COCCOCCNC(=O)CC[C@H](NC(=O)CCCCCCCCCCCCCCCCCCC(=O)O)C(=O)O)NC(=O)[C@H](CCCCN)NC(=O)[C@H](CC(=O)O)NC(=O)[C@H](CC(C)C)NC(=O)[C@H](CC(C)C)NC(=O)[C@@H](NC(=O)[C@H](CO)NC(=O)[C@H](Cc1ccc(O)cc1)NC(=O)[C@H](CC(=O)O)NC(=O)[C@H](CO)NC(=O)[C@@H](NC(=O)[C@H](Cc1ccccc1)NC(=O)[C@@H](NC(=O)CNC(=O)[C@H](CCC(N)=O)NC(=O)C(C)(C)NC(=O)[C@@H](N)Cc1ccc(O)cc1)[C@@H](C)O)[C@@H](C)O)[C@@H](C)CC)C(=O)N[C@@H](CCC(=O)O)C(=O)N[C@@H](Cc1ccc(O)cc1)C(=O)N[C@@H](CC(C)C)C(=O)N[C@@H](CC(C)C)C(=O)N[C@@H](CCC(=O)O)C(=O)NC(C)(C)C(=O)NCC(=O)N1CCC[C@H]1C(=O)N[C@@H](CO)C(=O)N[C@@H](CO)C(=O)NCC(=O)N[C@@H](C)C(=O)N1CCC[C@H]1C(=O)N1CCC[C@H]1C(=O)N1CCC[C@H]1C(=O)N[C@@H](CO)C(N)=O
Ki [1]: 3.76 nM | Ki [2]: 9.23 nM | Ki [3]: 0.109 nM | cAMP EC50 (0.1% casein) [4]: 0.0641 nM | cAMP EC50 (FBS and BSA present) [4]: 3.97 nM | cAMP EC50 (0.1% casein) [5]: 0.149 nM | cAMP EC50 (FBS and BSA present) [5]: 20.6 nM | cAMP EC50 (0.1% casein) [6]: 0.0572 nM | cAMP EC50 (FBS and BSA present) [6]: 3.7 nM
